According to article doi:10.1101/2022.08.09.503299:

Biological target: other proteasome components
Assay: SEC

share of the BirA* signal that co-elutes with proteasome components: 60%
Substance: PSMA4-BirA*-FLAG (from UniProt P25789 2-261) (natural protein)
